Data: PMC5954133, “Functional Characterization of a Small Alarmone Hydrolase in Corynebacterium glutamicum” (Frontiers in Microbiology, 2018)

Legend:
Assay in all cases: HPLC-UV pyrophosphohydrolase assay, Eadie-Hofstee
Format in all cases: biochemical, Corynebacterium glutamicum
[1] = substrate: Nc1nc2c(ncn2[C@@H]2O[C@H](COP(=O)(O)OP(=O)(O)O)[C@@H](OP(=O)(O)OP(=O)(O)O)[C@H]2O)c(=O)[nH]1; settings: 1 mM MnCl2, 50 mM HEPES-Na pH 8.0, 200 mM NaCl, 30°C, substrate inhibition, approximate fit from lowest concentrations
From the text: (§1) HPLC-UV pyrophosphohydrolase assay, Eadie-Hofstee on RelCg

[2] = substrate: Nc1nc2c(ncn2[C@@H]2O[C@H](COP(=O)(O)O)[C@@H](OP(=O)(O)OP(=O)(O)O)[C@H]2O)c(=O)[nH]1; settings: 1 mM MnCl2, 50 mM HEPES-Na pH 8.0, 200 mM NaCl, 30°C, substrate inhibition, approximate fit from lowest concentrations
From the text: as §1

[3] = substrate: Nc1nc2c(ncn2[C@@H]2O[C@H](COP(=O)(O)OP(=O)(O)OP(=O)(O)O)[C@@H](OP(=O)(O)OP(=O)(O)O)[C@H]2O)c(=O)[nH]1; settings: 1 mM MnCl2, 50 mM HEPES-Na pH 8.0, 200 mM NaCl, 30°C, substrate inhibition, approximate fit from lowest concentrations, only two data points, no error analysis
From the text: as §1

[4] = substrate: Nc1nc2c(ncn2[C@@H]2O[C@H](COP(=O)(O)OP(=O)(O)O)[C@@H](OP(=O)(O)OP(=O)(O)O)[C@H]2O)c(=O)[nH]1; settings: 1 mM MnCl2, 50 mM HEPES-Na pH 8.0, 200 mM NaCl, 30°C, substrate inhibition, approximate fit from lowest concentrations; remark: listed apart in the source
From the text: (§2) HPLC-UV pyrophosphohydrolase assay, Eadie-Hofstee on […]

[5] = substrate: Nc1nc2c(ncn2[C@@H]2O[C@H](COP(=O)(O)O)[C@@H](OP(=O)(O)OP(=O)(O)O)[C@H]2O)c(=O)[nH]1; settings: 1 mM MnCl2, 50 mM HEPES-Na pH 8.0, 200 mM NaCl, 30°C, substrate inhibition, approximate fit from lowest concentrations, only two data points, no error analysis
From the text: as §2

[6] = substrate: Nc1nc2c(ncn2[C@@H]2O[C@H](COP(=O)(O)OP(=O)(O)OP(=O)(O)O)[C@@H](OP(=O)(O)OP(=O)(O)O)[C@H]2O)c(=O)[nH]1; settings: 1 mM MnCl2, 50 mM HEPES-Na pH 8.0, 200 mM NaCl, 30°C, substrate inhibition, approximate fit from lowest concentrations
From the text: as §2

B1: RelCg (Corynebacterium glutamicum ATCC 13032) (protein)
chain: MSLERNTQKSSMGVRSMSARLARSLTGNRVRTNPVLDPLLSIHRQFHPRADVQVLERAYDTAERLHDGVIRKSGDPYITHPLAVATIAAEIGMDTTTLVAALLHDTVEDTDYSLDDLTRDFGEEVARLVDGVTKLDKVALGAAAEAETIRKMIVAMSQDPRVLVIKVADRLHNMRTMRFLPPEKQAKKARQTLEVIAPLAHRLGMASVKWELEDLSFAILYPKKYEEIVRLVADRAPSRDRYLKEIIDQVTGGLRENNIAAEVLGRPKHYWSIYQKMIVRGRDFDDIFDLVGIRILVDNVNNCYAAIGVVHSLFNALPGRFKDYISAPRFGVYQSLHTTVMGPGGKPLEVQARTHDMHYNAEFGIAAHWRYKETKGSHSGEQAEVDQMAWMRQLLDWQKEAADPNEFLDSLRYDLTSKQIFVFTPKGDVVNLPVNSTPVDFAYAVHTEVGHRCIGAKINGKLVALETKLKSGDRVEVFTSKDQNAGPSRGWQEFVVSPRAKAKIRQWFAKERREEYLEAGRDALAAVIQRGGLPMHRLFTASSMKTVATELHYPDVDALYTAIGSGSVSAQHVVNRLMAIFGDEEDAEDALVARTPFSELVNSRATTESSTGILVEGSPDVMAKLAKCCMPVPGDEIFGFVTRGGGVSVHRTDCTNVEKLKEEPERIVSVSWASEGQGSVFSATLQLEALDRAGLLFELTRVINEQKVSVTAMNSHCSEDRVATVRFTFAVSDTKQLGSLMTQLRNAEGVFDVYRVTSGG
notes: full-length bifunctional RSH; expressed in E. coli ER2566
[1]
  Km: 511 ± 10 µM
  kcat: 0.296 ± 0.004 s⁻¹
  kcat/Km: 579 M⁻¹ s⁻¹
[2]
  Km: 734 ± 127 µM
  kcat: 0.794 ± 0.071 s⁻¹
  kcat/Km: 1080 M⁻¹ s⁻¹
[3]
  Km: 422 µM
  kcat: 0.563 s⁻¹
  kcat/Km: 1340 M⁻¹ s⁻¹

B2: RelHCg (Corynebacterium glutamicum ATCC 13032) (protein)
chain: MNTLSPRLRKAMNTAAWAHRHHVRKGGGIPYVSHLYSVMYLLASVTNDEDVLIAGLLHDTLEDVPEEYNSAQLEADFGPRVRELVEELTKQPLKSWKARADAYLLHLSAGASLEAVLISTADKLHNLMSILDDLEIHGEDLWQRFNAGKEQQIWWYSEVYQISLQRLGFNELNKQLGLCVEKLLKQSA
notes: full-length; expressed in E. coli ER2566
[4]
  Km: 101 ± 7 µM
  kcat: 0.502 ± 0.018 s⁻¹
  kcat/Km: 4970 M⁻¹ s⁻¹
[5]
  Km: 144 µM
  kcat: 0.294 s⁻¹
  kcat/Km: 2040 M⁻¹ s⁻¹
[6]
  Km: 90 ± 11 µM
  kcat: 0.09 ± 0.003 s⁻¹
  kcat/Km: 1010 M⁻¹ s⁻¹
